# Key:
# Assay in all cases: ELISA, lectin-captured E1E2 lysate, Ab 1 ug/ml
# [1] = target: E1E2 complex (H77) with E1 mutation D263A (HCV genotype 1a, isolate H77) (UniProt P27958)
# [2] = target: E1E2 complex (H77) with E1 mutation D321A (HCV genotype 1a, isolate H77) (UniProt P27958)
# [3] = target: E1E2 complex (H77) with E1 mutation F293A (HCV genotype 1a, isolate H77) (UniProt P27958)
# [4] = target: E1E2 complex (H77) with E1 mutation N196A/N325A (HCV genotype 1a, isolate H77) (UniProt P27958)
# [5] = target: E1E2 complex (H77) with E1 mutation N305A (HCV genotype 1a, isolate H77) (UniProt P27958)
# [6] = target: E1E2 complex (H77) with E1 mutation N305A/N234A (HCV genotype 1a, isolate H77) (UniProt P27958)
# [7] = target: E1E2 complex (H77) with E1 mutation N325A (HCV genotype 1a, isolate H77) (UniProt P27958)
# [8] = target: E1E2 complex (H77) with E1 mutation P228A (HCV genotype 1a, isolate H77) (UniProt P27958)
# [9] = target: E1E2 complex (H77) with E1 mutation Q193A (HCV genotype 1a, isolate H77) (UniProt P27958)
# [10] = target: E1E2 complex (H77) with E1 mutation Q302A (HCV genotype 1a, isolate H77) (UniProt P27958)
# [11] = target: E1E2 complex (H77) with E1 mutation R317A (HCV genotype 1a, isolate H77) (UniProt P27958)
# [12] = target: E1E2 complex (H77) with E1 mutation S211A (HCV genotype 1a, isolate H77) (UniProt P27958)
# [13] = target: E1E2 complex (H77) with E1 mutation S294A (HCV genotype 1a, isolate H77) (UniProt P27958)
# [14] = target: E1E2 complex (H77) with E1 mutation S327A (HCV genotype 1a, isolate H77) (UniProt P27958)
# [15] = target: E1E2 complex (H77) with E1 mutation T292A (HCV genotype 1a, isolate H77) (UniProt P27958)
# [16] = target: E1E2 complex (H77) with E1 mutation T329A (HCV genotype 1a, isolate H77) (UniProt P27958)
# [17] = target: E1E2 complex (H77) with E1 mutation V227A (HCV genotype 1a, isolate H77) (UniProt P27958)
# [18] = target: E1E2 complex (H77) with E1 mutation V246A (HCV genotype 1a, isolate H77) (UniProt P27958)
# [19] = target: E1E2 complex (H77) with E1 mutation V266A (HCV genotype 1a, isolate H77) (UniProt P27958)
# [20] = target: E1E2 complex (H77) with E1 mutation W326A (HCV genotype 1a, isolate H77) (UniProt P27958)
# [21] = target: E1E2 complex (H77) with E1 mutation Y276A (HCV genotype 1a, isolate H77) (UniProt P27958)
# [22] = target: E1E2 complex (H77) with E2 mutation A642G (HCV genotype 1a, isolate H77) (UniProt P27958)
# [23] = target: E1E2 complex (H77) with E2 mutation A643G (HCV genotype 1a, isolate H77) (UniProt P27958)
# [24] = target: E1E2 complex (H77) with E2 mutation E637A (HCV genotype 1a, isolate H77) (UniProt P27958)
# [25] = target: E1E2 complex (H77) with E2 mutation H638A (HCV genotype 1a, isolate H77) (UniProt P27958)
# [26] = target: E1E2 complex (H77) with E2 mutation N428A (HCV genotype 1a, isolate H77) (UniProt P27958)
# [27] = target: E1E2 complex (H77) with E2 mutation R614A (HCV genotype 1a, isolate H77) (UniProt P27958)
# [28] = target: E1E2 complex (H77) with E2 mutation T621A (HCV genotype 1a, isolate H77) (UniProt P27958)
# [29] = target: E1E2 complex (H77) with E2 mutation Y624A (HCV genotype 1a, isolate H77) (UniProt P27958)
substance,measurement,setting,value
mouse anti-E1 MAb A4 (antibody),Binding relative to wt (%),[1],96%
same,Binding relative to wt (%),[2],91%
same,Binding relative to wt (%),[3],87%
same,Binding relative to wt (%),[4],64%
same,Binding relative to wt (%),[5],123%
same,Binding relative to wt (%),[6],109%
same,Binding relative to wt (%),[7],83%
same,Binding relative to wt (%),[8],171%
same,Binding relative to wt (%),[9],81%
same,Binding relative to wt (%),[10],215%
same,Binding relative to wt (%),[11],95%
same,Binding relative to wt (%),[12],106%
same,Binding relative to wt (%),[13],99%
same,Binding relative to wt (%),[14],85%
same,Binding relative to wt (%),[15],90%
same,Binding relative to wt (%),[16],89%
same,Binding relative to wt (%),[17],150%
same,Binding relative to wt (%),[18],96%
same,Binding relative to wt (%),[19],96%
same,Binding relative to wt (%),[20],72%
same,Binding relative to wt (%),[21],82%
same,Binding relative to wt (%),[22],137%
same,Binding relative to wt (%),[23],131%
same,Binding relative to wt (%),[24],122%
same,Binding relative to wt (%),[25],104%
same,Binding relative to wt (%),[26],127%
same,Binding relative to wt (%),[27],133%
same,Binding relative to wt (%),[28],114%
same,Binding relative to wt (%),[29],121%

# Source: patent publication US20110311550A1
